Measured values from patent publication US7354588B1, “Functional derivatives of ICAM-1 with altered ability to bind LFA-1 or HRV” (Dana Farber Cancer Institute, priority 1987, dated 2008).

Tests used:
LFA-1 = target: T1, LFA-1 (Homo sapiens, UniProt P05107+P20701); assay: Adherence of COS cells expressing ICAM-1 or ICAM-1 mutants to plastic-bound purified LFA-1; assay type: cell-based; settings: COS cells expressing ICAM-1 mutant adhering to LFA-1 coated plastic; normalized for percent of cells expressing mutant and for wild type binding; mean
T1 construct: endogenous in cells
T1 sequence (P20701 26-1170): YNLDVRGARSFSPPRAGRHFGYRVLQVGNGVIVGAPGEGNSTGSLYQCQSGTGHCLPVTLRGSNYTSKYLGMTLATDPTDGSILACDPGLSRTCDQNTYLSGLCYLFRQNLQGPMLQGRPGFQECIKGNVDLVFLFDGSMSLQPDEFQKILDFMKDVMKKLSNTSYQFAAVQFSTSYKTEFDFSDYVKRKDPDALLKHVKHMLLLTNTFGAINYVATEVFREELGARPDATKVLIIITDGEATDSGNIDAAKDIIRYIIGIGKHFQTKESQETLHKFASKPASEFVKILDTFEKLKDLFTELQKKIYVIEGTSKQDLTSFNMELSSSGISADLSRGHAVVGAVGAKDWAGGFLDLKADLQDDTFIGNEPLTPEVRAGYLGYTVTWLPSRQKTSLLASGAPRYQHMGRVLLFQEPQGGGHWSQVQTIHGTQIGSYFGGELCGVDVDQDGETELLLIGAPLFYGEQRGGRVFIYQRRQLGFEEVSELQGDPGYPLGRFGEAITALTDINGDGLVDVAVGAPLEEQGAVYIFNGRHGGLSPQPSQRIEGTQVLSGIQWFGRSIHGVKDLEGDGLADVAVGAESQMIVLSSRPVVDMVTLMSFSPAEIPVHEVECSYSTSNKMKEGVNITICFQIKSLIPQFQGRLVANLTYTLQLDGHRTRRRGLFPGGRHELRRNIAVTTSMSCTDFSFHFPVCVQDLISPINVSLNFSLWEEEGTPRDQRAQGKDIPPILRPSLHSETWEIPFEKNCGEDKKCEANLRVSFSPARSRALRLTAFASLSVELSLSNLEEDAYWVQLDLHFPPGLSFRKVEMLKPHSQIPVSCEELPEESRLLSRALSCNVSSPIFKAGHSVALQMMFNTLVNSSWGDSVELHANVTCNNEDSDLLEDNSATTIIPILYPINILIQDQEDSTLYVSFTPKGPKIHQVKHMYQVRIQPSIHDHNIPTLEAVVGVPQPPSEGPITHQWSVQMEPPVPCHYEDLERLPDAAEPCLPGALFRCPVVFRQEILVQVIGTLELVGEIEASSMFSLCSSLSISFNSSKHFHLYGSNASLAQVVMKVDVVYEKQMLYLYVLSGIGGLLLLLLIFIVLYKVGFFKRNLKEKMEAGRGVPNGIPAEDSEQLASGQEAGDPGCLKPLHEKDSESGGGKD
T1 sequence (P05107 23-769): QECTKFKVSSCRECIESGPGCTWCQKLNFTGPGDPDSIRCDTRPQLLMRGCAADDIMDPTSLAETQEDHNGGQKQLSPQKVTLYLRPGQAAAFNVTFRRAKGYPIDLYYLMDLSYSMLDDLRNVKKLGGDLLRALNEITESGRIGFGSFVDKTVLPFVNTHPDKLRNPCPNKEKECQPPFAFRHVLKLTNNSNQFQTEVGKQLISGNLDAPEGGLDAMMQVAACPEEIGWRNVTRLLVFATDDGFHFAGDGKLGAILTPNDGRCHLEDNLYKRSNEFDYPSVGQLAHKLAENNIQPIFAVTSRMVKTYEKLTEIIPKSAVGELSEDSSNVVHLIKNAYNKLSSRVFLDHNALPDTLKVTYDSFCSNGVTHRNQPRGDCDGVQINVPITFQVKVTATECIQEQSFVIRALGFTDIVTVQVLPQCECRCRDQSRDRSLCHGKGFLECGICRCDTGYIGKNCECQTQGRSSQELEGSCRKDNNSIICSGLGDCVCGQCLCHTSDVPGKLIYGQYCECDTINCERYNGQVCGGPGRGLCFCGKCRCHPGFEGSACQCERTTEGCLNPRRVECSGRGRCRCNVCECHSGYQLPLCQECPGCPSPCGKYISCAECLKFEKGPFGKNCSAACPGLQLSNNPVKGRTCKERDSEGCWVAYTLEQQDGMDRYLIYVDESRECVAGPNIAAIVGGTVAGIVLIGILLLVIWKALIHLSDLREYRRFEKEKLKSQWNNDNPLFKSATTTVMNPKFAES

LB-2 mAb = assay: Indirect immunofluorescence flow cytofluorometry: mAb LB-2 binding to COS cells expressing ICAM-1 mutants (SLFI, % CL203); assay type: cell-based; settings: SLFI normalized to CL203 SLFI of the mutant
How it was run: (§1)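 Transfected COS cells expressing ICAM-1 point mutants were stained by indirect immunofluorescence and analysed by flow cytometry. Specific linear fluorescence intensity of CL203 is expressed relative to wild-type CL203; RR1/1, R6.5 and LB-2 SLFI are expressed relative to CL203 SLFI of the same mutant.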

CL203 mAb = assay: Indirect immunofluorescence flow cytofluorometry: mAb CL203 binding to COS cells expressing ICAM-1 mutants (SLFI, % WT); assay type: cell-based; settings: SLFI of CL203 for mutant normalized to wild type CL203 SLFI; level of expression
How it was run: as §1

RR1/1 mAb = assay: Indirect immunofluorescence flow cytofluorometry: mAb RR1/1 binding to COS cells expressing ICAM-1 mutants (SLFI, % CL203); assay type: cell-based; settings: SLFI normalized to CL203 SLFI of the mutant
How it was run: as §1

R6.5 mAb = assay: Indirect immunofluorescence flow cytofluorometry: mAb R6.5 binding to COS cells expressing ICAM-1 mutants (SLFI, % CL203); assay type: cell-based; settings: SLFI normalized to CL203 SLFI of the mutant
How it was run: as §1

HRV14 = assay: Binding of [^35S]-Met labeled HRV14 to COS cells expressing ICAM-1 mutants; assay type: cell-based, human rhinovirus 14; settings: 35S met-labeled HRV14 binding to COS cells expressing ICAM-1 mutant; normalized for percent of cells expressing mutant and for wild type binding; mean

Molecule | LFA-1 Binding % (LFA-1) | SLFI (% CL203) LB-2 (LB-2 mAb) | Cl203 % WT (SLFI) (CL203 mAb) | SLFI (% CL203) RR/1 (RR1/1 mAb) | SLFI (% CL203) R6.5 (R6.5 mAb) | HRV Binding % (HRV14)
S3VS/AGL (protein, UniProt P05362 28-532, looked up, variant S3A V4G S5L) Intercellular adhesion …: QTAGLPSKVILPRGGSVLVTCSTSCDQPKLLGIETPLPKKELLLPGNNRKVYELSNVQEDSQPMCYSNCPDGQSTAKTFLTVYWTPERVELAPLPSWQPVGKNLTLRCQVEGGAPRANLTVVLLRGEKELKREPAVGEPAEVTTTVLVRRDHHGANFSCRTELDLRPQGLELFENTSAPYQLQTFVLPATPPQLVSPRVLEVDTQGTVVCSLDGLFPVSEAQVHLALGDQRLNPTVTYGNDSFSAKASVSVTAEDEGTQRLTCAVILGNQSQETLQTVTIYSFPAPNVILTKPEVSEGTEVTVKCEAHPRAKVTLNGVPAQPLGPRAQLLLKATPEDNGRSFSCSATLEVAGQLIHKNQTRELRVLYGPRLDERDCPGNWTWPENSQQTPMCQAWGNPLPELKCLKDGTFPLPIGESVTVTRDLEGTYLCRARSTQGEVTRKVTVNVLSPRYEIVIITVVAAAVIMGTAGLSTYLYNRQRKIKKYRLQQAQKGTPMKPNTQATPP | 18% | 9 % CL203 | 121 % WT | 5 % CL203 | 31 % CL203 | 61%
Q62PM/API (protein, UniProt P05362 28-532, looked up, variant Q62A M64I) Intercellular adhesion …: QTSVSPSKVILPRGGSVLVTCSTSCDQPKLLGIETPLPKKELLLPGNNRKVYELSNVQEDSAPICYSNCPDGQSTAKTFLTVYWTPERVELAPLPSWQPVGKNLTLRCQVEGGAPRANLTVVLLRGEKELKREPAVGEPAEVTTTVLVRRDHHGANFSCRTELDLRPQGLELFENTSAPYQLQTFVLPATPPQLVSPRVLEVDTQGTVVCSLDGLFPVSEAQVHLALGDQRLNPTVTYGNDSFSAKASVSVTAEDEGTQRLTCAVILGNQSQETLQTVTIYSFPAPNVILTKPEVSEGTEVTVKCEAHPRAKVTLNGVPAQPLGPRAQLLLKATPEDNGRSFSCSATLEVAGQLIHKNQTRELRVLYGPRLDERDCPGNWTWPENSQQTPMCQAWGNPLPELKCLKDGTFPLPIGESVTVTRDLEGTYLCRARSTQGEVTRKVTVNVLSPRYEIVIITVVAAAVIMGTAGLSTYLYNRQRKIKKYRLQQAQKGTPMKPNTQATPP | 104% | 73 % CL203 | 200 % WT | 59 % CL203 | 81 % CL203 | 182%
Q58EDS/AKDI (protein, UniProt P05362 28-532, looked up, variant Q58A E59K S61I) Intercellular adhesion …: QTSVSPSKVILPRGGSVLVTCSTSCDQPKLLGIETPLPKKELLLPGNNRKVYELSNVAKDIQPMCYSNCPDGQSTAKTFLTVYWTPERVELAPLPSWQPVGKNLTLRCQVEGGAPRANLTVVLLRGEKELKREPAVGEPAEVTTTVLVRRDHHGANFSCRTELDLRPQGLELFENTSAPYQLQTFVLPATPPQLVSPRVLEVDTQGTVVCSLDGLFPVSEAQVHLALGDQRLNPTVTYGNDSFSAKASVSVTAEDEGTQRLTCAVILGNQSQETLQTVTIYSFPAPNVILTKPEVSEGTEVTVKCEAHPRAKVTLNGVPAQPLGPRAQLLLKATPEDNGRSFSCSATLEVAGQLIHKNQTRELRVLYGPRLDERDCPGNWTWPENSQQTPMCQAWGNPLPELKCLKDGTFPLPIGESVTVTRDLEGTYLCRARSTQGEVTRKVTVNVLSPRYEIVIITVVAAAVIMGTAGLSTYLYNRQRKIKKYRLQQAQKGTPMKPNTQATPP | 3% | 7 % CL203 | 98 % WT | 10 % CL203 | 22 % CL203 | 0%
